Measured values reported in patent US11160869B2 (priority 2019, dated 2021).

Columns and labels:
plasma cytokines = assay: MSD V-plex Proinflammatory Panel 1 plasma cytokines, oxazolone colitis (Example 14); assay type: in vivo, mice; conditions: 8.45 mg/kg
From the text: Plasma cytokines were quantified using the V-plex Proinflammatory Panel 1 Mouse Kit. Plasma IL-1Ra was quantitated by sandwich immunoassay using an antibody pair from the Mouse IL-1Ra/IL-1F3 DuoSet ELISA (R&D Systems #DY480), Streptavidin SULFO-TAG Labeled (MSD #R32AD-1), Multi-Array 96 Plate Pack, SECTOR Plate MSD #L15XA-3 and Read Buffer T (4×) (MSD #R92TC-2). Samples were read on the QuickPlex SQ 120 plate reader (Meso Scale Discovery, Rockville, Md.).

[1] = test system: IFNγ, IL-1β, IL-2, IL-6, IL-8, TNFα; assay: Single oral capsule dose in NHP: plasma proinflammatory cytokines; assay type: in vivo, Macaca fascicularis
Protocol: The panel of cytokines (IFNγ, IL-1β, IL-2, IL-6, and IL-8) was evaluated using a multiplex kit available from MSD. The assays in this panel were sandwich immunoassays. The MSD plate came precoated with capture antibodies on independent and pre-defined spots, and samples were quantitated against an 8-point standard curve prepared using a mixture of the cytokines (Proinflammatory Panel 1 (human) Calibrator Blend) from MSD. The standards included 0 pg/mL and these concentration ranges: IFNγ (0.37-1500 pg/mL), IL-1β ([…]), IL-2 (0.36-1490 pg/mL), IL-6 (0.18-721 pg/mL) and IL-8 (0.14-553 pg/mL).
The MSD plate (pre-coated with capture antibodies) was washed 3 times with PBST before use. […] Following a wash step, 2×MSD Read buffer was added to the wells of the plate, and the plate read using the MSD Sector Imager 600 plate reader. […]
The purpose of the TNFα immunoassay was to quantify NHP TNFα concentration in plasma. […] Samples were quantitated using an 8-point standard curve prepared from a human TNFα calibrator that ranges in concentration from 5.6-4052 pg/mL and includes 0 pg/mL.
The biotinylated anti-NHP TNFα capture antibody was added to a MSD Small Spot Streptavidin plate and incubated for an hour at RT with shaking. […] Following a wash step, 2×MSD Read buffer was added to the wells of the plate, and the plate read using the MSD Sector Imager 600 plate reader. […]

IL-1Ra = assay: Systemic IL-1Ra in non-inflamed mice (ELISA MSD); assay type: in vivo; conditions: construct 10 mg/kg; rhIL-10 3 mg/kg; oral
[2] = test system: colonic marker expression; assay: Colonic sigmoidoscopy spray in NHP: pro-/anti-inflammatory and tissue repair markers; assay type: in vivo, Macaca fascicularis; conditions: 1, 3, 10 mg
Protocol: To assess the effect of an IL-10 delivery construct on pro-inflammatory and anti-inflammatory markers the IL-10 delivery construct was delivered to male Macaca fascicularis monkeys (about 5 to about 8 kg) by colonic sigmoidoscopy with a spray nozzle. The IL-10 delivery construct was administered at doses of 1 mg, 3 mg, and 10 mg formulated in albumin.

ulcerative colitis = assay: Phase 1b multiple ascending dose in patients with active ulcerative colitis; assay type: in vivo, human; conditions: for placebo-adjusted mean reduction of FCP: baseline FCP >150 μg/g
Protocol: Data was gathered on the safety, tolerability, pharmacokinetics, pharmacodynamics, and initial clinical response following a multiple ascending dose (MAD) of the IL-10 delivery construct in adult patients with active UC over 14 days of treatment. […] A coating with a weight ratio of 50:50 of Eudragit® L30D55: Eudragit® FS30D was applied with a thickness of 14.8 to 16.0 mg/cm^2 and a weight of approximately 76 mg to each capsule. Placebo capsules were generated using similarly coated empty capsules.
A total of four cohorts were dosed with either 1 mg, 3 mg, 10, mg or 30 mg of the IL-10 delivery construct, randomized 3:1 to receive the IL-10 delivery construct or a placebo administered once daily for fourteen days. The goal of the trial was to assess the safety of the IL-10 delivery construct and any change in UC disease activity, through endoscopy, histology, biomarkers, and serum samples. Stool samples and colonic biopsies were obtained at baseline and day 14 of treatment to assess fecal calprotectin as well as histology based upon blinded central read of the Geboes scoring system. Fecal calprotectin is an objective marker of clinical response in UC studies and the Geboes scoring system is a measure of histological response. The Geboes scoring system of this example used a 0-22 point histologic scoring system in which higher scores represent more severe disease.

human SMI-100 monolayers = assay: Transport across polarized human small intestinal cell monolayers (SMI-100), western blot; conditions: apical to basal, 2 hr
[3] = 1 mg once daily for 14 days, n = 3 UC patients
[4] = 3 mg once daily for 14 days, n = 3 UC patients
[5] = 10 mg once daily for 14 days, n = 3 UC patients
[6] = 30 mg once daily for 14 days, n = 3 UC patients

B1: IL-10 delivery construct: recombinant homodimeric fusion protein: N-terminal methionine, cholix386 domain, polyGlySer spacer, recombinant human IL-10 (protein)
chain: MVEEALNIFDECRSPCSLTPEPGKPIQSKLSIPSDVVLDEGVLYYSMTINDEQNDIKDEDKGESIITIGEFATVRATRHYVNQDAPFGVIHLDITTENGTKTYSYNRKEGEFAINWLVPIGEDSPASIKISVDELDQQRNIIEVPKLYSIDLDNQTLEQWKTQGNVSFSVTRPEHNIAISWPSVSYKAAQKEGSRHKRWAHWHTGLALCWLVPMDAIYNYITQQNCTLGDNWFGGSYETVAGTPKVITVKQGIEQKPVEQRIHFSKGNAMSALAAHRVCGVPLETLARSRKPRDLTDDLSCAYQAQNIVSLFVATRILFSHLDSVFTLNLDEQEPEVAERLSDLRRINENNPGMVTQVLTVARQIYNDYVTHHPGLTPEQTSAGAQAGGGGSGGGGSGGGGSPGQGTQSENSCTHFPGNLPNMLRDLRDAFSRVKTFFQMKDQLDNLLLKESLLEDFKGYLGCQALSEMIQFYLEEVMPQAENQDPDIKAHVNSLGENLKTLRLRLRRCHRFLPCENKSKAVEQVKNAFNKLQEKGIYKAMSEFDIFINYIEAYMTMKIRN
modifications: homodimer
Plasma cytokines
  suppression of induction of IL-4 (trend): 62%
  suppression of induction of IL-6 (trend): 61%
  suppression of induction of IL-12p70 (trend): 65%
  suppression of induction of KC/GRO (trend): 51%
Plasma cytokines; p<0.05
  plasma expression of IL-10 and IL-2 relative to Vehicle: significantly reduced
[1]; 1, 4, 20.5, 82 mg oral capsules
  plasma IFNγ, IL-1β, IL-2, IL-8, IL-6: not associated with any consistent trends
[1]; all samples
  plasma TNFα: below the limit of detection
IL-1Ra
  increase of systemic IL-1Ra: about 3 fold
[2]
  expression of anti-inflammatory markers: increased expression of anti-inflammatory markers
  expression of pro-inflammatory markers: decreased expression of pro-inflammatory markers
  expression of tissue repair and wound healing biomarkers: increased expression of biomarkers associated with tissue repair and wound healing
Ulcerative colitis; [3]
  # of TEASs: 2
  TEASs (% pts): 67%
Ulcerative colitis; 1 mg, 14 days
  placebo-adjusted mean reduction of FCP: 44%
Ulcerative colitis; [4]
  # of TEASs: 7
  TEASs (% pts): 67%
Ulcerative colitis; 3 mg, 14 days
  placebo-adjusted mean reduction of FCP: 27%
Ulcerative colitis; 10 mg and 30 mg
  FCP activity at higher doses: diminution of activity at higher doses
Ulcerative colitis; [5]
  # of TEASs: 5
  TEASs (% pts): 67%
Ulcerative colitis; 10 mg, pre-dose to 14 days
  Geboes score of one UC patient (22 point scale): improved from a score of 15 to a score of three
Ulcerative colitis; [6]
  # of TEASs: 6
  TEASs (% pts): 67%
Ulcerative colitis; 1, 3, 10, 30 mg once daily 14 days
  tolerability in patients with UC: well tolerated
Ulcerative colitis; 1 and 3 mgs, baseline CRP greater than 5 mg/L
  CRP levels compared to placebo: greater reductions in CRP levels
Ulcerative colitis; 14 days
  TEAEs in the 12 active patients: 20
Ulcerative colitis; 14 days, (6/10) active patients
  patients with reduced Geboes scores: 60%
Ulcerative colitis; All Active, n = 12 UC patients
  # of TEASs: 20
  TEASs (% pts): 67%
Ulcerative colitis; human, in vivo
  detection in systemic circulation: not detected in systemic circulation
  treatment emergent AEs of anemia or thrombocytopenia: no treatment emergent AEs of anemia or thrombocytopenia were observed
Human SMI-100 monolayers
  transport across monolayers relative to rhIL-10: to a greater extent
